In publication PMC10373194, “Determination of the Dissociation Constant for Polyvalent Receptors Using ELISA: A Case of M13 Phages Displaying Troponin T-Specific Peptides” (ACS Omega, 2023):
Values joined by “and” are separate entries in the source; they are usually repeats but may differ in a detail not shown here. Identical values can stand only once. Like-named read-outs stand apart in the source and are kept apart here.

Key:
troponin T (TnT) [1] = target: T1, troponin T (TnT) (Homo sapiens, UniProt P45379); assay: Determination of Kd via k-ELISA (Friguet procedure, preincubation of phage with soluble TnT); assay type: binding
Procedure: During an ELISA experiment, as proposed by Friguet,[21] a constant concentration of phages is incubated with different concentrations of TnT. Saturation of phages (in solution) by soluble TnT limits the ability of phages to bind to immobilized TnT, and therefore, increasing concentration of TnT causes a decrease in signal from the phages, in our case, the M13. Theoretically, two options have to be discussed: (1) a signal (a) is generated for each phage with at least one unoccupied active site (eq 11) and (2) a signal (a) is generated proportionally to the total concentration of unoccupied active sites (eq 12). [drawing 21] 11 [drawing 22] 12
ELISA (also k-ELISA) can be used to measure the dissociation constant (Kd), which is commonly applied to describe affinity.[21] According to the mathematical model presented above, the Kd value can be calculated via pre-incubation of a receptor with varied concentrations of ligand and subsequent detection of the soluble receptor (phage) via ELISA. This approach was adapted and applied to evaluate the affinity of several phage-derived ligands[16]−[18] but without a theoretical analysis and fulfilling fundamental Friguet’s assumptions.[21] In these papers, phages were treated as monovalent receptors while they are tri to pentavalent (due to a varied number of pIII protein per phage particle). Moreover, the authors applied a wide range of ligand concentrations, high excess compared to the receptor and treated the concentration-signal function as logarithmic, while the discussion above concluded that it is not possible to apply Frigeut’s method for almost completely saturated receptors (due to ligand excess).
In our work, analysis was performed for clones: A3, B7, D11, and wild-type M13. […] The phages’ total concentration was about 1 × 10^10 pfu/mL (16 pM) and was carefully determined using the biological method immediately before analysis. The range of ratios of total TnT and total phage concentration was 1:2, 1:1, 2:1, and 4:1. […] As a result, a decrease in the ability to bind to immobilized TnT molecules occurs. Experimental data were analyzed according to the presented mathematical model.
The dissociation constant was calculated using k-ELISA, according to the procedure first described by Friguet.[21] Phages (∼10^10 pfu/mL corresponding to about 16 pM) were preincubated with different concentrations of TnT from 0 to 4 ng/mL (which corresponds to 108 pM). Next, mixtures were transferred into wells precoated with 0.25 μg/mL TnT (or BSA). Further steps were performed in the same manner as for phage concentration measuring experiments.

troponin T (TnT) [2] = target: T1, troponin T (TnT); assay type: binding
troponin T (TnT) [3] = target: T1, troponin T (TnT); assay: Bio-panning of Ph.D.-12 phage display library on TnT-coated plates; assay type: binding; details: after 3 rounds of bio-panning; number of proper sequences
Description: In each bio-panning round, the input and output phases were titrated immediately before or after the experiment. The presented mean p(O/I) value for each bio-panning round may be interpreted as the efficiency of phage binding. In chemical nomenclature, p(x) is defined as −log(x), so a higher p(O/I) means a lower ratio of phage output–input. The p(O/I) value for the first panning round is relatively low. However, usage of more concentrated Tween-20 (from 0.1 to 0.5%) causes a significant increase in p(O/I) values for the second round (around 4) despite a higher phage input. In addition, there is a difference between the second and the third p(O/I), which may be interpreted as an enrichment of TnT-binders in the phage pool, and it is the main aim of bio-panning via phage display. The increase in phage recovery yield is a widely reported observation by manufacturers and other authors.[14],[17],[35],[36]
Plate panning was performed regarding the general concept presented by Barbas et al.[60] with some modifications. Polystyrene plates were precoated with TnT and incubated overnight (18–24 h) in 100 μL of 20 μg/mL TnT solution in PBS at 4 °C. Then, the wells were emptied and filled with 100 μL of 0.1% BSA solution (in PBS) and incubated for 2 h in the fridge. Later, they were washed four times with PBST 0.1% (in the first panning round) and 0.5% in the next two. […]

troponin T (TnT) [4] = target: T1, troponin T (TnT); assay: ELISA screening of isolated phage clones against TnT (BSA as negative control)
Procedure: It is worth mentioning that both TnT- and BSA-precoated wells were blocked with the same 0.1% BSA solution, so BSA was present in each well in significant excess.
ELISAs were performed in 96-well polystyrene plates (Thermo Scientific, USA). Wells were precoated with the desired protein by 16–20 h incubation of the protein suspension in PBS at 4 °C. In all assays, 1:5000 dilution of HRP-antiM13pVIII monoclonal antibody conjugate was used. Signals were recorded using Synergy HTX Multi-Mode Reader by BioTek.
In the initial screening, plates were precoated with troponin T or BSA (negative control) by incubating 100 μL of 1 μg/mL appropriate protein solution. Then plates were blocked with 0.1% BSA for 2 h at 4 °C and washed 4 times with 0.1% PBST. Every isolated phage clone solution (phages concentration 10^10 pfu/mL, 100 μL) was incubated with TnT and BSA for 1 h at 350 rpm at room temperature. Then wells were washed 4 times using 0.1% PBST, 100 μL of HRP-antibody conjugate was added, and plates were incubated as previously. After 1 h, plates were washed as before, and 50 μL of TMB was added. After 5 min, the reaction was stopped by adding 50 μL of 2 M sulfuric acid. Absorbance at 450 nm was read using a Synergy HTX Multi-Mode Reader (BioTek) plate reader.

[5] = assumed stoichiometry 1:1, k-ELISA, phages ~10^10 pfu/mL (about 16 pM) preincubated with TnT 0 to 4 ng/mL, wells precoated 0.25 μg/mL TnT, 0.01% myoglobin blocking, absorbance 370 nm every 70 s for 10 min, linear slope regression, triplicate, phage-displayed peptide
[6] = assumed stoichiometry 1:2, k-ELISA, phages ~10^10 pfu/mL (about 16 pM) preincubated with TnT 0 to 4 ng/mL, wells precoated 0.25 μg/mL TnT, 0.01% myoglobin blocking, absorbance 370 nm every 70 s for 10 min, linear slope regression, triplicate, phage-displayed peptide

Substance	Kd (troponin T (TnT) [1]; [5])	Kd (troponin T (TnT) [1]; [6])	Kd (troponin T (TnT) [1]; assumed stoichiometry 1:5, k-ELISA, phages ~10^10 pfu/mL (about 16 pM) preincubated with TnT 0 to 4 ng/mL, wells precoated 0.25 μg/mL TnT, 0.01% myoglobin blocking, absorbance 370 nm every 70 s for 10 min, linear slope regression, triplicate, phage-displayed peptide)	nature of interaction with target (troponin T (TnT) [2])	Kd (troponin T (TnT) [1])	frequency among sequenced clones (troponin T (TnT) [3])	ELISA signal TnT versus BSA / affinity in screening (in words) (troponin T (TnT) [4])
B7: TnT-binding M13 phage clone displaying 12-amino-acid peptide (HRSMPTPLWYTA in Table 2) on pIII	0.077 ± 0.013 nM	0.166 ± 0.03 nM	0.143 ± 0.053 nM	–	–	–	–
D11: TnT-binding M13 phage clone displaying 12-amino-acid peptide (ALKIGPETTIYM in Table 2) on pIII	0.167 ± 0.007 nM	0.216 ± 0.04 nM	–	–	–	–	–
DHAQRYGAGHSG [A3]	–	–	–	specific interaction with the studied target	0.115 nM and 0.187 nM and 0.172 nM	4 out of 16 and 4/16	highest affinity in screening
